From patent US20220073635A1 (ALLIGATOR BIOSCIENCE, published 2022)

T1: EpCAM-Fc (Sino hEpCAM_Fc #10694-H02H) (human, UniProt P16422 24-265)
T1 construct: Bought protein, called dimeric; also called dimeric antigen EpCAM-Fc; not shown: Fc part
T1 sequence (looked up): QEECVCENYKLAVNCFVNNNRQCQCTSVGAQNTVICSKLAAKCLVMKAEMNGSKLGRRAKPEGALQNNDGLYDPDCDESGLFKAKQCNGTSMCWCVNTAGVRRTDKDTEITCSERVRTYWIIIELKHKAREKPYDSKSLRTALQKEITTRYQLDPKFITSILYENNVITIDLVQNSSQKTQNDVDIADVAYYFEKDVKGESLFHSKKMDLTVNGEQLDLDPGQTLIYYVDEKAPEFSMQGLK

T2: hEpCAM (R&D Systems #9277-EP) (human, UniProt P16422 24-265)
T2 construct: Bought protein, monomeric; also called human EpCAM; monomeric antigen EpCAM-his; not shown: His tag
T2 sequence (looked up): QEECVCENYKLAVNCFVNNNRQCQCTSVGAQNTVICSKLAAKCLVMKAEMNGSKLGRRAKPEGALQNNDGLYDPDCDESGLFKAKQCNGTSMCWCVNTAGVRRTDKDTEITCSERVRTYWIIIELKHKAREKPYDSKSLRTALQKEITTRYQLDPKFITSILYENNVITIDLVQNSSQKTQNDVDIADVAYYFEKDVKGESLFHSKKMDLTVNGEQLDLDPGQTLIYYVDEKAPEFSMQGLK

T3: human EpCAM expressed on cells (human, UniProt P16422 24-314)
T3 construct: whole, on cells; also called EpCAM-transfected CHO cells; CHO-EpCAM
T3 sequence (looked up): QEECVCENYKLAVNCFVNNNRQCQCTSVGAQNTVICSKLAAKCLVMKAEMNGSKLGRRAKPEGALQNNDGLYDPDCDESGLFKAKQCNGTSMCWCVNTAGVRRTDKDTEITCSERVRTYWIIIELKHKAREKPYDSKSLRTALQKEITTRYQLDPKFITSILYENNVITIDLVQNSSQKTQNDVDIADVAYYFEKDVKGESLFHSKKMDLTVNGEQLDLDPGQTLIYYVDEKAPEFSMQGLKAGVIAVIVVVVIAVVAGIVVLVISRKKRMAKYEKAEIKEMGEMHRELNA


What was measured:
[1] = target: T1, EpCAM-Fc (Sino hEpCAM_Fc #10694-H02H); assay: Octet BLI, Assay 1: bsAb on FAB2G sensor, dimeric EpCAM-Fc in solution, 1:1 fit
Method: (§1) Kinetic measurements were performed using the Octet RED96 platform (ForteBlo).
(§2) BsAb at 1.0 or 1.5 ug/ml where coupled to anti-human Fab-CH1 2nd generation (FAB2G) biosensors (Part no #18-5125 (tray)). Antigens were serially diluted % in 1× Kinetic buffer (ForteBio) to 100 nM, 50 nM, 25 nM, 12.5 nM, 6.25 nM, 3.125 nM, 1.56 nM or 0 nM. The association was followed for 300 seconds and the dissociation in 1× Kinetic buffer for 300 seconds. Sensor tips were regenerated using 10 mM glycine, pH 1.5. Data generated were referenced by subtracting a parallel buffer blank, the baseline was aligned with the y-axis, inter-step correlation by alignment against dissociation was performed and the data were smoothed by a Savitzky-Golay filter in the data analysis software (v.9.0.0.14). The processed data were fitted using a 1:1 Langmuir binding model with X2 as a measurement of fitting accuracy.

[2] = target: T2, hEpCAM (R&D Systems #9277-EP); assay: Octet BLI, Assay 2: bsAb on FAB2G sensor, monomeric EpCAM-his in solution, 1:1 fit
Method: as §1, §2

[3] = target: T4, biotinylated hCD40 (504-030 from Ancell) (human, UniProt P25942 21-193, biotinylated); assay: dual ELISA, bsAb captured on plate-coated hEpCAM, detected with biotinylated hCD40 and streptavidin-HRP
T4 construct: Detection reagent of the dual ELISA
T4 sequence (P25942 21-193 limits assumed): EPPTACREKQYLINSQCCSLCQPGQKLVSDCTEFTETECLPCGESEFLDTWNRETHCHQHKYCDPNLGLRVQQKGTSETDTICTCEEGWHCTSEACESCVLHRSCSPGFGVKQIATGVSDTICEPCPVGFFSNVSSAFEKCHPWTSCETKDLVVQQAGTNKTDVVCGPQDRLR
Method: Plates were coated with 0.5 μg/mL hEpCAM (R&D Systems #9277-EP) in PBS over night at 4° C. After washing in PBS/0.05% Tween 20 (PBST), the plates were blocked with PBS/0.2% BSA for at least 30 minutes at room temperature before being washed again. Samples serially diluted from 50 nM in PBS/0.02% BSA were then added and allowed to bind for at least 1 hour at room temperature. […] Dual antigen-complexed bsAb were detected with HRP-labelled streptavidin. SuperSignal Pico Luminescent was used as substrate and luminescence signals were measured using Fluostar Optima.

[4] = target: T1, EpCAM-Fc (Sino hEpCAM_Fc #10694-H02H); assay: Octet BLI, Assay 3: EpCAM-Fc coupled to AR2G sensor, bsAb in solution, 1:1 fit
Method: as §1
Antigen was coupled to Amine reactive Second generation sensors (Dip and Read Amine reactive Second-Generation (AR2G) Biosensors (Part no #18-5092 (tray)) at antigen concentrations of 0.4, 1.5, 0.25 or 0.5 μg/mL. BsAb (serially diluted ½ in 1× Kinetic buffer (ForteBio) with start concentrations of 20, 15, 10 or 25 nM) were analysed for binding to antigen-coupled sensors. The association was followed for 300 seconds and the dissociation in 1× Kinetic buffer for 300 seconds. Sensor tips were regenerated using 10 mM glycine, pH 2.2. Data generated were referenced by subtracting a parallel buffer blank, the baseline was aligned with the y-axis, inter-step correlation by alignment against dissociation was performed and the data were smoothed by a Savitzky-Golay filter in the data analysis software (v.9.0.0.14). The processed data were fitted using a 1:1 Langmuir binding model with X2 as a measurement of fitting accuracy.

[5] = target: T3, human EpCAM expressed on cells; assay: flow cytometry, biotinylated antibody titrated on EpCAM-transfected and control CHO cells, streptavidin detection
Excerpt: The human EpCAM gene was cloned into pcDNA3.1, and the vector was subsequently stably transfected into CHO cells. Control CHO cells were stably transfected with and empty pcDNA3.1 vector. […] Binding of biotinylated antibodies was detected with fluorochrome-conjugated streptavidin and analysed using flow cytometry.

[6] = target: T5, CD40 on human peripheral blood mononuclear cells (human, UniProt P25942 21-277); assay: flow cytometry, biotinylated antibody titrated on human PBMC (B cells, monocytes, T cells, NK cells gated), streptavidin detection
T5 construct: whole, on cells; also called CD40+ cell populations among PBMC (B cells, monocytes)
T5 sequence (P25942 21-277): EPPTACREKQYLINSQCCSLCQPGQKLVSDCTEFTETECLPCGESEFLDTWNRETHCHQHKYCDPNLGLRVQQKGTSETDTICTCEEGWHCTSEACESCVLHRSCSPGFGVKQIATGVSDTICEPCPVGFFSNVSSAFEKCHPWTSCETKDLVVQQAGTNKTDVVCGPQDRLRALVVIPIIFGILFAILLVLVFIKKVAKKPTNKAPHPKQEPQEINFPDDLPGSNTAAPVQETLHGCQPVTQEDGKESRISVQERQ
Excerpt: Binding of biotinylated antibodies was detected with fluorochrome-conjugated streptavidin and analysed using flow cytometry.

Row | Binder | Kd [1] | koff [1] | kon [1] | Kd [2] | koff [2] | kon [2] | binding result [3] | Kd [4] | koff [4] | kon [4] | binding result [5] | binding result [6]
1 | 1132-005025.M (bispecific antibody, also called CD40-EpCAM bispecific antibody in the Morrison format) VH: EVQLLESGGGLVQPGGSLRLSCAASGFTFSSYAMSWVRQAPGKGLEWVSGIGSYGGGTYYADSVKGRFTISRDNSKNTLYLQMNSLRAEDTAVYYCARYVNFGMDYWGQGTLVTVSS VL: DIQMTQSPSSLSASVGDRVTITCRASQSISSYLNWYQQKPGKAPKLLIYAASSLQSGVPSRFSGSGSGTDFTLTISSLQPEDFATYYCQQYGRNPPTFGQGTKLEIK scFv: not shown | 4 nM | 0.001 s⁻¹ | 300000 M⁻¹ s⁻¹ | 300 nM | 0.01 s⁻¹ | 30000 M⁻¹ s⁻¹ | – | – | – | – | – | –
2 | 1132-005038.M (bispecific antibody, also called CD40-EpCAM bispecific antibody in the Morrison format) VH: EVQLLESGGGLVQPGGSLRLSCAASGFTFSSYAMSWVRQAPGKGLEWVSGIGSYGGGTYYADSVKGRFTISRDNSKNTLYLQMNSLRAEDTAVYYCARYVNFGMDYWGQGTLVTVSS VL: DIQMTQSPSSLSASVGDRVTITCRASQSISSYLNWYQQKPGKAPKLLIYAASSLQSGVPSRFSGSGSGTDFTLTISSLQPEDFATYYCQQYGRNPPTFGQGTKLEIK scFv: not shown | 6 nM | 0.002 s⁻¹ | 300000 M⁻¹ s⁻¹ | 1000 nM | 0.01 s⁻¹ | 8000 M⁻¹ s⁻¹ | – | – | – | – | – | –
3 | 1132-3188.M (bispecific antibody, V domains shown, also called CD40-EpCAM bispecific antibody in the Morrison format; 3188 = 4D5MOCB = BM1) VH 1: EVQLLESGGGLVQPGGSLRLSCAASGFTFSSYAMSWVRQAPGKGLEWVSGIGSYGGGTYYADSVKGRFTISRDNSKNTLYLQMNSLRAEDTAVYYCARYVNFGMDYWGQGTLVTVSS VL 1: DIQMTQSPSSLSASVGDRVTITCRASQSISSYLNWYQQKPGKAPKLLIYAASSLQSGVPSRFSGSGSGTDFTLTISSLQPEDFATYYCQQYGRNPPTFGQGTKLEIK VH 2: EVQLVQSGPGLVQPGGSVRISCAASGYTFTNYGMNWVKQAPGKGLEWMGWINTYTGESTYADSFKGRFTFSLDTSASAAYLQINSLRAEDTAVYYCARFAIKGDYWGQGTLLTVSS VL 2: DIQMTQSPSSLSASVGDRVTITCRSTKSLLHSNGITYLYWYQQKPGKAPKLLIYQMSNLASGVPSRFSSSGSGTDFTLTISSLQPEDFATYYCAQNLEIPRTFGQGTKVELK | < 0.001 nM | < 1e-07 s⁻¹ | 300000 M⁻¹ s⁻¹ | 30 nM | 0.004 s⁻¹ | 100000 M⁻¹ s⁻¹ | – | – | – | – | – | –
4 | 1132-3174.M (bispecific antibody, V domains shown, also called CD40-EpCAM bispecific antibody in the Morrison format) VH 1: EVQLLESGGGLVQPGGSLRLSCAASGFTFSSYAMSWVRQAPGKGLEWVSGIGSYGGGTYYADSVKGRFTISRDNSKNTLYLQMNSLRAEDTAVYYCARYVNFGMDYWGQGTLVTVSS VL 1: DIQMTQSPSSLSASVGDRVTITCRASQSISSYLNWYQQKPGKAPKLLIYAASSLQSGVPSRFSGSGSGTDFTLTISSLQPEDFATYYCQQYGRNPPTFGQGTKLEIK VH 2: EVQLLEQSGAELVRPGTSVKISCKASGYAFTNYWLGWVKQRPGHGLEWIGDIFPGSGNIHYNEKFKGKATLTADKSSSTAYMQLSSLTFEDSAVYFCARLRNWDEPMDYWGQGTTVTVSS VL 2: ELVMTQSPSSLTVTAGEKVTMSCKSSQSLLNSGNQKNYLTWYQQKPGQPPKLLIYWASTRESGVPDRFTGSGSGTDFTLTISSVQAEDLAVYYCQNDYSYPLTFGAGTKLEIK | 0.5 nM | 8e-05 s⁻¹ | 200000 M⁻¹ s⁻¹ | 500 nM | 0.01 s⁻¹ | 20000 M⁻¹ s⁻¹ | binds | – | – | – | – | –
5 | 1132-3174.R (bispecific antibody) chain 1: not shown chain 2: ELVMTQSPSSLTVTAGEKVTMSCKSSQSLLNSGNQKNYLTWYQRKPGQPPKLLIYWASTRESGVPDRFTGSGSGTDFTLTISSVQAEDLAVYYCQNDYSYPLTFGAGTKLEIK chain 3: DIQMTQSPSSLSASVGDRVTITCRASQSISSYLNWYQEKPGKAPKLLIYAASSLQSGVPSRFSGSGSGTDFTLTISSLQPEDFATYYCQQYGRNPPTFGQGTKLEIKRTVAAPSVFIFPPSDEQLKSGTASVVCYLNNFYPREAKVQWKVDNALQSGNSQESVTEQDSKDSTYSLWSTLTLSKADYEKHKVYACEVTHQGLSSPVTKSFNRGEC chain 4: EVQLLEQSGAELVRPGTSVKISCKASGYAFTNYWLGWVKERPGHGLEWIGDIFPGSGNIHYNEKFKGKATLTADKSSSTAYMQLSSLTFEDSAVYFCARLRNWDEPMDYWGQGTTVTVSSASTKGPSVFPLAPSSKSTSGGTAALGCLVKDYFPEPVTVSWNSGALTSGVHTFPAVLQSSGLYSLSSVVEVPSSSLGTQTYICNVNHKPSNTKVDKKVEPKSC | – | – | – | – | – | – | – | 8 nM | 0.001 s⁻¹ | 100000 M⁻¹ s⁻¹ | – | –
6 | 1132.m2 (antibody, V domains shown, also called LALA-mutated agonistic monoclonal CD40 antibody) VH: EVQLLESGGGLVQPGGSLRLSCAASGFTFSSYAMSWVRQAPGKGLEWVSGIGSYGGGTYYADSVKGRFTISRDNSKNTLYLQMNSLRAEDTAVYYCARYVNFGMDYWGQGTLVTVSS VL: DIQMTQSPSSLSASVGDRVTITCRASQSISSYLNWYQQKPGKAPKLLIYAASSLQSGVPSRFSGSGSGTDFTLTISSLQPEDFATYYCQQYGRNPPTFGQGTKLEIK | – | – | – | – | – | – | – | – | – | – | no binding | binds
